The results in this text go back to publication PMC314469, “Protein Interaction Networks by Proteome Peptide Scanning” (PLoS Biology, 2004).

Sequences and labels used below:
T1: Rvs167 SH3 (RV167_YEAST), P39743
T1 chain: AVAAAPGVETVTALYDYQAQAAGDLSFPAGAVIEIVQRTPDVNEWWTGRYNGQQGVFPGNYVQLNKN

T2: Boi1 SH3 (BOI1_YEAST), P38041
T2 chain: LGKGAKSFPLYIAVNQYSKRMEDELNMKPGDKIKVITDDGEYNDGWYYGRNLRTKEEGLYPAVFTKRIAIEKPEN

T3: Boi2 SH3 (BOI2_YEAST), P39969
T3 chain: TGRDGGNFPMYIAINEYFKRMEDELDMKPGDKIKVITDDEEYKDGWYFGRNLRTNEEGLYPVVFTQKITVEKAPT

T4: Yhr016c SH3 (YSC84_YEAST), P32793
T4 chain: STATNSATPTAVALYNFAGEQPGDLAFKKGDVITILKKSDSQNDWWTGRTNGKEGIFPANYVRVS

T5: Yfr024 SH3 (LSB3_YEAST), P43603
T5 chain: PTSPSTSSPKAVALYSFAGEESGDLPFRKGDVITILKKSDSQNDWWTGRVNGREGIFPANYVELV

B1: YGL073W 526-539 (peptide)
chain: AGSPIRPYKQRYLL
B2: YCL073C 330-343 (peptide)
chain: AKSPLLPFKLLSDR
B3: YNL139C 1465-1478 (peptide)
chain: ALRPTGPDRGDGFD
B4: YHL047C 340-353 (peptide)
chain: ALVPFAPFKLLKDR
B5: YLR144C 7-20 (peptide)
chain: AIPPPVPNRPGGTT
B6: YGR031W 269-282 (peptide)
chain: AAWPLDPARERWTR
B7: YMR012W 411-424 (peptide)
chain: AMNPESPTRDQIFL
B8: YAR061W 26-39 (peptide)
chain: ASLPVGPRKNGMNV
B9: YIL162W 315-328 (peptide)
chain: AFVPTNPWRSSMSL
B10: YKL104C 225-238 (peptide)
chain: AGQPEIPLKSNNKS
B11: YLR070C 92-105 (peptide)
chain: ALEPGIPDRFSPEM
B12: YBR060C 65-78 (peptide)
chain: ALKPKTPSKAPRKR
B13: YNL330C 36-49 (peptide)
chain: AGHPMKPHRIRMAH
B14: YIR003W 42-55 (peptide)
chain: AGTPNVPTRRPILK
B15: YDL246C 91-104 (peptide)
chain: AIEPGVPSRYSDET
B16: YGL153W 84-97 (peptide)
chain: AMPPTLPHRDWKDY
B17: YBR089C-A 7-20 (peptide)
chain: AKQPKEPKKRTTRR
B18: YLR029C 39-52 (peptide)
chain: AARPTRPDKARRLG
B19: YLL018C-A 11-24 (peptide)
chain: ALRPTPPERGSFPL

The first test addresses T1, Rvs167 SH3 (RV167_YEAST), P39743. Briefly: SPOT array.
In turn, B1 came in with a normalised SPOT signal, Boehringer light units (BLU); mean over the file's lines of this peptide of 343.
On to B2, for which the normalised SPOT signal, Boehringer light units (BLU); mean over the file's lines of this peptide was 45.1.
The molecule B3 registered a normalised SPOT signal, Boehringer light units (BLU); mean over the file's lines of this peptide of 59.8.
The molecule B4 gave a normalised SPOT signal, Boehringer light units (BLU); mean over the file's lines of this peptide of 136.
Take B5: the normalised SPOT signal, Boehringer light units (BLU); mean over the file's lines of this peptide was determined as 186.
Same read-out and setting: to B6 belongs 25.5; to B7, 63.
The molecule B8 yielded a normalised SPOT signal, Boehringer light units (BLU); mean over the file's lines of this peptide of 170.
Molecule B9 displayed a normalised SPOT signal, Boehringer light units (BLU); mean over the file's lines of this peptide of 57.
As to B10, the normalised SPOT signal, Boehringer light units (BLU); mean over the file's lines of this peptide worked out at 0.
Turning to B11, the normalised SPOT signal, Boehringer light units (BLU); mean over the file's lines of this peptide was 56.6.
The molecule B12 had a normalised SPOT signal, Boehringer light units (BLU); mean over the file's lines of this peptide of 300.
Same read-out and setting: to B13 belongs 279.
On to B14, for which the normalised SPOT signal, Boehringer light units (BLU); mean over the file's lines of this peptide amounted to 448.
Regarding B15, the normalised SPOT signal, Boehringer light units (BLU); mean over the file's lines of this peptide was found to be 35.9.
B16 registered a normalised SPOT signal, Boehringer light units (BLU); mean over the file's lines of this peptide of 2620.
In turn, B17 gave a normalised SPOT signal, Boehringer light units (BLU); mean over the file's lines of this peptide of 130.
On to B18, for which the normalised SPOT signal, Boehringer light units (BLU); mean over the file's lines of this peptide is 109.
On the same count and under the same terms, with B19 the figure was 448.

In a further test the target is T2, Boi1 SH3 (BOI1_YEAST), P38041. Briefly: SPOT array.
In turn, B1 displayed a normalised SPOT signal, Boehringer light units (BLU); mean over the file's lines of this peptide of 744.
As for B2, the normalised SPOT signal, Boehringer light units (BLU); mean over the file's lines of this peptide is 84.8.
With B3, the normalised SPOT signal, Boehringer light units (BLU); mean over the file's lines of this peptide stood at 132.
Turning to B4, the normalised SPOT signal, Boehringer light units (BLU); mean over the file's lines of this peptide was 16.7.
With B5, the normalised SPOT signal, Boehringer light units (BLU); mean over the file's lines of this peptide turned out to be 10.1.
Consider B6, for which the normalised SPOT signal, Boehringer light units (BLU); mean over the file's lines of this peptide is 549.
On to B7, for which the normalised SPOT signal, Boehringer light units (BLU); mean over the file's lines of this peptide was 34.6.
The same measure, in the same setting: to B8 belongs 158; to B9, 294.
As for B10, the normalised SPOT signal, Boehringer light units (BLU); mean over the file's lines of this peptide turned out to be 69.5.
Same read-out and setting: with B11 the figure was 102.
The molecule B12 showed a normalised SPOT signal, Boehringer light units (BLU); mean over the file's lines of this peptide of 247.
B13 displayed a normalised SPOT signal, Boehringer light units (BLU); mean over the file's lines of this peptide of 138.
On the same count and under the same terms, with B14 the figure was 4210.
The same measure, in the same setting: with B15 the figure was 63.
For B16, the normalised SPOT signal, Boehringer light units (BLU); mean over the file's lines of this peptide came out at 113.
B17 yielded a normalised SPOT signal, Boehringer light units (BLU); mean over the file's lines of this peptide of 196.
In turn, B18 returned a normalised SPOT signal, Boehringer light units (BLU); mean over the file's lines of this peptide of 173.
Take B19: the normalised SPOT signal, Boehringer light units (BLU); mean over the file's lines of this peptide was 230.

In the next test the target is T3, Boi2 SH3 (BOI2_YEAST), P39969. Briefly: SPOT array.
Take B1: the normalised SPOT signal, Boehringer light units (BLU); mean over the file's lines of this peptide worked out at 352.
B2: the normalised SPOT signal, Boehringer light units (BLU); mean over the file's lines of this peptide amounted to 46.2.
Regarding B3, the normalised SPOT signal, Boehringer light units (BLU); mean over the file's lines of this peptide is 8.2.
For the molecule B4, the normalised SPOT signal, Boehringer light units (BLU); mean over the file's lines of this peptide turned out to be 40.5.
In turn, B5 yielded a normalised SPOT signal, Boehringer light units (BLU); mean over the file's lines of this peptide of 23.8.
B6: the normalised SPOT signal, Boehringer light units (BLU); mean over the file's lines of this peptide worked out at 52.7.
In turn, B7 yielded a normalised SPOT signal, Boehringer light units (BLU); mean over the file's lines of this peptide of 39.3.
B8 returned a normalised SPOT signal, Boehringer light units (BLU); mean over the file's lines of this peptide of 88.
As to B9, the normalised SPOT signal, Boehringer light units (BLU); mean over the file's lines of this peptide came out at 39.8.
Take B10: the normalised SPOT signal, Boehringer light units (BLU); mean over the file's lines of this peptide amounted to 33.5.
B11 showed a normalised SPOT signal, Boehringer light units (BLU); mean over the file's lines of this peptide of 31.2.
The same measure, in the same setting: with B12 the figure was 103; with B13, 162.
In turn, B14 came in with a normalised SPOT signal, Boehringer light units (BLU); mean over the file's lines of this peptide of 26.9.
Consider B15, for which the normalised SPOT signal, Boehringer light units (BLU); mean over the file's lines of this peptide came out at 22.8.
Same read-out and setting: to B16 belongs 39.4; to B17, 105; to B18, 198.
In turn, B19 came in with a normalised SPOT signal, Boehringer light units (BLU); mean over the file's lines of this peptide of 27.5.

For another test, the target named is T4, Yhr016c SH3 (YSC84_YEAST), P32793. Nature of the test: SPOT array.
For B1, the normalised SPOT signal, Boehringer light units (BLU); mean over the file's lines of this peptide is 180.
Regarding B2, the normalised SPOT signal, Boehringer light units (BLU); mean over the file's lines of this peptide came to 229.
In turn, B3 showed a normalised SPOT signal, Boehringer light units (BLU); mean over the file's lines of this peptide of 179.
For the molecule B4, the normalised SPOT signal, Boehringer light units (BLU); mean over the file's lines of this peptide worked out at 123.
With B5, the normalised SPOT signal, Boehringer light units (BLU); mean over the file's lines of this peptide turned out to be 6020.
Still for that read-out and setting: with B6 the figure was 134; with B7, 125; with B8, 167.
With B9, the normalised SPOT signal, Boehringer light units (BLU); mean over the file's lines of this peptide was 58.7.
As to B10, the normalised SPOT signal, Boehringer light units (BLU); mean over the file's lines of this peptide was found to be 102.
For B11, the normalised SPOT signal, Boehringer light units (BLU); mean over the file's lines of this peptide was 30.2.
Regarding B12, the normalised SPOT signal, Boehringer light units (BLU); mean over the file's lines of this peptide worked out at 341.
Turning to B13, the normalised SPOT signal, Boehringer light units (BLU); mean over the file's lines of this peptide stood at 895.
Molecule B14 had a normalised SPOT signal, Boehringer light units (BLU); mean over the file's lines of this peptide of 4390.
In turn, B15 yielded a normalised SPOT signal, Boehringer light units (BLU); mean over the file's lines of this peptide of 153.
In turn, B16 showed a normalised SPOT signal, Boehringer light units (BLU); mean over the file's lines of this peptide of 25500.
Still for that read-out and setting: to B17 belongs 78; to B18, 194.
As for B19, the normalised SPOT signal, Boehringer light units (BLU); mean over the file's lines of this peptide was determined as 917.

A further test has as its target T5, Yfr024 SH3 (LSB3_YEAST), P43603. Briefly: SPOT array.
Take B1: the normalised SPOT signal, Boehringer light units (BLU); mean over the file's lines of this peptide came to 1770.
With B2, the normalised SPOT signal, Boehringer light units (BLU); mean over the file's lines of this peptide is 4310.
For B3, the normalised SPOT signal, Boehringer light units (BLU); mean over the file's lines of this peptide is 145.
On to B4, for which the normalised SPOT signal, Boehringer light units (BLU); mean over the file's lines of this peptide was determined as 121.
Still for that read-out and setting: with B5 the figure was 11200; with B6, 300.
As to B7, the normalised SPOT signal, Boehringer light units (BLU); mean over the file's lines of this peptide is 648.
B8 registered a normalised SPOT signal, Boehringer light units (BLU); mean over the file's lines of this peptide of 619.
For B9, the normalised SPOT signal, Boehringer light units (BLU); mean over the file's lines of this peptide stood at 840.
Regarding B10, the normalised SPOT signal, Boehringer light units (BLU); mean over the file's lines of this peptide came to 1260.
Consider B11, for which the normalised SPOT signal, Boehringer light units (BLU); mean over the file's lines of this peptide turned out to be 96.8.
Consider B12, for which the normalised SPOT signal, Boehringer light units (BLU); mean over the file's lines of this peptide was 2060.
On the same count and under the same terms, with B13 the figure was 6490; with B14, 24700; with B15, 151.
Regarding B16, the normalised SPOT signal, Boehringer light units (BLU); mean over the file's lines of this peptide is 14600.
On to B17, for which the normalised SPOT signal, Boehringer light units (BLU); mean over the file's lines of this peptide stood at 854.
Take B18: the normalised SPOT signal, Boehringer light units (BLU); mean over the file's lines of this peptide stood at 4960.
As to B19, the normalised SPOT signal, Boehringer light units (BLU); mean over the file's lines of this peptide was 1960.
